Tested on: MHC class-I
Experiment: Surface expression of MHC class I in transduced Jurkat T-cells (FACS)
Format: cell-based, human
Conditions: HIV nef as positive control
Method: FIGS. 5A-5E. (FIG. 5A) Amino acids alignment between Rex-orfI protein (p16) (SEQ ID NO: 10) and p12/p8 (SEQ ID NO: 11). Amino acids changes are underlined. Jurkat T-cells (FIG. 5B) or THP-1 cells (FIG. 5C) were transduced with lentiviral GFP vector expressing p12/p8 HA tag, or p16-HA tag or only GFP, as a control. Forty-eight hours post-transfection proteins were extracted and immunoblot with anti HA antibody was performed. Jurkat T-cells were transduced with GFP-lentiviruses expressing p16, Nef, or only GFP as a control. Cells were stained with HLA-ABC antibody (PE/Cy5 anti-human HLA-A,B,C clone w6/32 BioLegend) and analyzed by FACS. (FIG. 5D) Protein expression was verified by Immunoblot using an anti HA antibody and B-actin as control (cell signaling and appropriate secondary antibodies purchased from Santa Cruz Biotechnology) (FIG. 5E).
The cDNA synthesized from the rex-orf-I mRNA (FIG. 5A) encodes upon transfection a single protein band (p16) in Jurkat T-cells (FIG. 5B and FIG. 5C). In the human myeloid cell line THP-1 further processing of p16 results in two lower protein bands (FIGS. 5D and 5E).

B1: p16: HTLV-1C protein encoded by the rex-orf-I mRNA (SEQ ID NO: 10) (protein, listed as Homo sapiens)
chain: MPKTRRGPRRSQRKRPPTPWQPPPFSLQGLCLALQLSSITINPQLRHSFSSSTTLPCLLLPSSLFCLSPLALAALLFLQFSPGAVGGLLLRPPPAPSLLLSLPFQKLSNLFLLLFFPLSFSLSLLLGPSPPITMRFPARWRFLFRRAPSQPA
effect on surface expression of MHC class I: does not affect surface expression of MHC-class I
